Measurements taken from paper PMC11329502.

Legend:
[1] = biological target: Recombinant mouse nidogen-2 protein (mouse) (UniProt O88322); experiment: ELISA
[2] = biological target: Recombinant mouse nidogen-2 protein (mouse) (UniProt O88322)

Sequence of UniProt O88322 (O88322 31-1403): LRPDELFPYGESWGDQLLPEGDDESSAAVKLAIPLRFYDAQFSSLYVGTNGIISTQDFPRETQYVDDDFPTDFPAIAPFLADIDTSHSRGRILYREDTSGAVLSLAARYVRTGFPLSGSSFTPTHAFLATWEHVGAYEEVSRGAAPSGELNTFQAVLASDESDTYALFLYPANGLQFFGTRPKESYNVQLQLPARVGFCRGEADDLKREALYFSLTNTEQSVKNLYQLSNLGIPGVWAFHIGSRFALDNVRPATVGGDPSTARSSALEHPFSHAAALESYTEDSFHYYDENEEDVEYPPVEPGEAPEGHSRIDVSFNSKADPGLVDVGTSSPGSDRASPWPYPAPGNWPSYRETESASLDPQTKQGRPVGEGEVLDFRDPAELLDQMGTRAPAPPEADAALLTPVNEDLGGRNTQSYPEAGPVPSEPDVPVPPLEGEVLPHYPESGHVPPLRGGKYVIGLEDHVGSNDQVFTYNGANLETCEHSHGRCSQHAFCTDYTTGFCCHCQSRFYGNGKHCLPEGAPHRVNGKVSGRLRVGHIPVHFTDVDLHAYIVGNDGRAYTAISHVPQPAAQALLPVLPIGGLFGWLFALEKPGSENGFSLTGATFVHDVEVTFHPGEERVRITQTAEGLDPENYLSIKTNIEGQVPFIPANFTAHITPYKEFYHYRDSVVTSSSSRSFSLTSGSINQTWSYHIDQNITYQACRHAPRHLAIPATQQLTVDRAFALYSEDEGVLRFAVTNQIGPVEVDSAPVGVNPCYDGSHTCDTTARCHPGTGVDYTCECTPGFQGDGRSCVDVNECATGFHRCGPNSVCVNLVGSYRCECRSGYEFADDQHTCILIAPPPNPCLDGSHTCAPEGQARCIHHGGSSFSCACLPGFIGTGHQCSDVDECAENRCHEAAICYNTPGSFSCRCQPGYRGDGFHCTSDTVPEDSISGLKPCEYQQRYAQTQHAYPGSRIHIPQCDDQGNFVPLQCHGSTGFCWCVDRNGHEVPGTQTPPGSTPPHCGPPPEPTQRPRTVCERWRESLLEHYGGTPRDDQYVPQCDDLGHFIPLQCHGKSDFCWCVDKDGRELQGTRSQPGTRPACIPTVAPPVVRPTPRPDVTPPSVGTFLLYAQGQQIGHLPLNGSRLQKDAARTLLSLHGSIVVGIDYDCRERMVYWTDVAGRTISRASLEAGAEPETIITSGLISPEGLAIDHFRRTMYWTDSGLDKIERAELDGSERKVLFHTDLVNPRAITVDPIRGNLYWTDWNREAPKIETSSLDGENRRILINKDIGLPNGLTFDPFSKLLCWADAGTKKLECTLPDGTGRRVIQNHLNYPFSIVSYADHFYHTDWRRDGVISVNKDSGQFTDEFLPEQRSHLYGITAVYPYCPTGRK

Substance | Kd [1] | uptake of HCT-555 in mouse motor neurons pre-incubated with 20 μM of the domain, against buffer; pair to be blocked: nidogen and endogenous LAR [2] | uptake of nidogen-2 in axons of mouse motor neurons pre-incubated with 20 μM of the domain, against buffer; pair to be blocked: nidogen and endogenous LAR [2]
LAR FNIII2-FLAG (6×His-LAR FNIII2-FLAG) (domain or fragment) | 2 µM | 30% | 25%
LAR FNIII4-FLAG (6×His-LAR FNIII4-FLAG) (domain or fragment) | 1.9 µM | 30% | 25%
LAR FNIII7-FLAG (6×His-LAR FNIII7-FLAG) (domain or fragment) | 2.5 µM | 30% | 25%

Further lines, with some results ahead:

Kd [1] | Substance | uptake of HCT-555 in mouse motor neurons pre-incubated with 20 μM of the domain, against buffer; pair to be blocked: nidogen and endogenous LAR [2] | uptake of nidogen-2 in axons of mouse motor neurons pre-incubated with 20 μM of the domain, against buffer; pair to be blocked: nidogen and endogenous LAR [2]
5.6 µM | LAR FNIII1-4-FLAG (domain or fragment) | – | –
6.8 µM | LAR FNIII5-7-FLAG (domain or fragment) | – | –
1.4 µM | LAR FNIII5-FLAG (6×His-LAR FNIII5-FLAG) (domain or fragment) | – | –
10 µM | PTPRδ FNIII5-7-FLAG (domain or fragment) | – | –
2 µM | PTPRδ Ig1-3-His (domain or fragment) | – | –
